Measured values taken from EP4566632A1, “MSLN ANTIBODY-DRUG CONJUGATE” (priority 2022, dated 2024).

Test system: NCI-H226 cells
Assay: Lung cancer NCI-H226 model
Format: in vivo, BALB/c Nude mouse
Conditions: tail vein, twice a week x5, day 28 post-administration
Experimental: NCI-H226 cells were cultured in a RPMI-1640 medium containing 10% fetal bovine serum at 37°C in a 5% CO2 atmosphere. On the day of inoculation, NCI-H226 cells in the exponential growth phase were collected. Tumor cells were first resuspended in a mixture of PBS and Matrigel (1:1) and then subcutaneously inoculated. Each BALB/c Nude mouse was subcutaneously inoculated with 5 × 10^6 NCI-H226 tumor cells. When the average tumor volume in each group of mice reached 150 mm^3, the mice were divided into groups for dosing. 55 mice were divided into 11 groups, after which dosing began. The dosing schedule was twice a week for a total of five administrations via tail vein injection at doses of 1 mg/kg body weight or 5 mg/kg body weight. After dosing began, body weight and tumor volume were measured twice weekly. Tumor volume was calculated using the formula of: Tumor Volume (mm^3) = 0.5 × Tumor long diameter × Tumor short diameter^2. Observations concluded on day 28 post-administration, followed by the euthanasia of all mice. Data analysis was performed using the t-test.

B1: BAY-949343: ADC developed by Bayer: anti-MSLN monoclonal antibody MF-T (anetumab) conjugated to maytansinoid DM4 via SPDB linker (conjugate, chains of the INN, looked up)
VH: QVELVQSGAEVKKPGESLKISCKGSGYSFTSYWIGWVRQAPGKGLEWMGIIDPGDSRTRYSPSFQGQVTISADKSISTAYLQWSSLKASDTAMYYCARGQLYGGTYMDGWGQGTLVTVSS
VL: DIALTQPASVSGSPGQSITISCTGTSSDIGGYNSVSWYQQHPGKAPKLMIYGVNNRPSGVSNRFSGSKSGNTASLTISGLQAEDEADYYCSSYDIESATPVFGGGTKLTVL
modifications: DM4 via SPDB linker (ravtansine)
average tumor volume (1 mg/kg): 497 mm^3
tumor growth inhibition rate (TGI, %) (1 mg/kg): 68%
average tumor volume (5 mg/kg): 253 mm^3
tumor growth inhibition rate (TGI, %) (5 mg/kg): 84%
